Consider one molecule from PMC9646525, “Cryo-EM structure of the SEA complex” (Nature, 2022).

One test addresses T1, Sea3 (S. cerevisiae (endogenous in yeast …, UniProt Q03897 1-1148)).
T1 construct: Sea3, S. cerevisiae, endogenous subunit of the SEAC; Sea3^SIP (Sea3^Nter) lies in the wing, Sea3^SAP (Sea3^Cter) in the core; Native protein of the purified complex; two copies in the SEAC; source: endogenous, yeast cells expressing Sea4-TAP; in lysate and co-purified with Sea4-TAP (IgG Dynabeads, TEV elution)
T1 sequence (looked up): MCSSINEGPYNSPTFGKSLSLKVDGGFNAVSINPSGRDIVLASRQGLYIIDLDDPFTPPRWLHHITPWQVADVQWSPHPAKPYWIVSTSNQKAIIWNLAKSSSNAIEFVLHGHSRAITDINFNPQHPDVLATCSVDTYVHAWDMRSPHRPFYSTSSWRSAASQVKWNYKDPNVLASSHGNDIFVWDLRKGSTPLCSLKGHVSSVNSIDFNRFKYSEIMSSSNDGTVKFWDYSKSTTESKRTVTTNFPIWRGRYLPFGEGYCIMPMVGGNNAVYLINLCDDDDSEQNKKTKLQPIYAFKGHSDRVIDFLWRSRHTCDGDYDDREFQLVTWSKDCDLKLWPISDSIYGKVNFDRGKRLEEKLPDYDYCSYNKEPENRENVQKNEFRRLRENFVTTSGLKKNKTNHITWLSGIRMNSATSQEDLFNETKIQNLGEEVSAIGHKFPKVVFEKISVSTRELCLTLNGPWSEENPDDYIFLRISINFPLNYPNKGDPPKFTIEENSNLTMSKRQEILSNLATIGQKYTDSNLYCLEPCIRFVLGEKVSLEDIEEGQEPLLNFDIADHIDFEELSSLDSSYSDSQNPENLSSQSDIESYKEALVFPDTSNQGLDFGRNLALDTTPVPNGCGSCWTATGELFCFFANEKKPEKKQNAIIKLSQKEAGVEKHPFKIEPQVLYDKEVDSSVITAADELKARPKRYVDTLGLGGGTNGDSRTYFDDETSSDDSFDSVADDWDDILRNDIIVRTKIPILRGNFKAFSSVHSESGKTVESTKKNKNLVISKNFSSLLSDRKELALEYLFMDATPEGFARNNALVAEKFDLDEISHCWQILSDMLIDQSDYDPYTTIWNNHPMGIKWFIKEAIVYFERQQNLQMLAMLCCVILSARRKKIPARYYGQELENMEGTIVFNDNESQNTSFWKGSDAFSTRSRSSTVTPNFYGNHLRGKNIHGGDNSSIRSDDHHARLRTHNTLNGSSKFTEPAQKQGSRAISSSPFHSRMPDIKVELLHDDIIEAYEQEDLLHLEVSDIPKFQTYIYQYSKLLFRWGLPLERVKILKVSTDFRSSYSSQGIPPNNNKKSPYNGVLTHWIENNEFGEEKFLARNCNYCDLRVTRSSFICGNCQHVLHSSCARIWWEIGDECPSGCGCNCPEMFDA
The experiment in a line: co-IP; Sea4-TAP captured from cleared yeast lysate on IgG-coupled Dynabeads, washed, eluted with TEV protease, Coomassie-stained SDS-PAGE; 4 °C, 20 mM HEPES-NaOH pH 7.4, 300 mM NaCl, 5 mM CHAPS, 10% glycerol; wild-type, ΔNpr3, Npr2^R84A and Sea1^R943A strains. As to conditions: partners not purified.

The target of a further test is T2, Sea2 (S. cerevisiae (endogenous in yeast …, UniProt Q08281 1-1341)).
T2 construct: Sea2, S. cerevisiae, endogenous subunit of the SEAC (SEACAT, core); Native protein of the purified complex; two copies in the SEAC; source: endogenous, yeast cells expressing Sea4-TAP; in lysate and co-purified with Sea4-TAP (IgG Dynabeads, TEV elution)
T2 sequence (looked up): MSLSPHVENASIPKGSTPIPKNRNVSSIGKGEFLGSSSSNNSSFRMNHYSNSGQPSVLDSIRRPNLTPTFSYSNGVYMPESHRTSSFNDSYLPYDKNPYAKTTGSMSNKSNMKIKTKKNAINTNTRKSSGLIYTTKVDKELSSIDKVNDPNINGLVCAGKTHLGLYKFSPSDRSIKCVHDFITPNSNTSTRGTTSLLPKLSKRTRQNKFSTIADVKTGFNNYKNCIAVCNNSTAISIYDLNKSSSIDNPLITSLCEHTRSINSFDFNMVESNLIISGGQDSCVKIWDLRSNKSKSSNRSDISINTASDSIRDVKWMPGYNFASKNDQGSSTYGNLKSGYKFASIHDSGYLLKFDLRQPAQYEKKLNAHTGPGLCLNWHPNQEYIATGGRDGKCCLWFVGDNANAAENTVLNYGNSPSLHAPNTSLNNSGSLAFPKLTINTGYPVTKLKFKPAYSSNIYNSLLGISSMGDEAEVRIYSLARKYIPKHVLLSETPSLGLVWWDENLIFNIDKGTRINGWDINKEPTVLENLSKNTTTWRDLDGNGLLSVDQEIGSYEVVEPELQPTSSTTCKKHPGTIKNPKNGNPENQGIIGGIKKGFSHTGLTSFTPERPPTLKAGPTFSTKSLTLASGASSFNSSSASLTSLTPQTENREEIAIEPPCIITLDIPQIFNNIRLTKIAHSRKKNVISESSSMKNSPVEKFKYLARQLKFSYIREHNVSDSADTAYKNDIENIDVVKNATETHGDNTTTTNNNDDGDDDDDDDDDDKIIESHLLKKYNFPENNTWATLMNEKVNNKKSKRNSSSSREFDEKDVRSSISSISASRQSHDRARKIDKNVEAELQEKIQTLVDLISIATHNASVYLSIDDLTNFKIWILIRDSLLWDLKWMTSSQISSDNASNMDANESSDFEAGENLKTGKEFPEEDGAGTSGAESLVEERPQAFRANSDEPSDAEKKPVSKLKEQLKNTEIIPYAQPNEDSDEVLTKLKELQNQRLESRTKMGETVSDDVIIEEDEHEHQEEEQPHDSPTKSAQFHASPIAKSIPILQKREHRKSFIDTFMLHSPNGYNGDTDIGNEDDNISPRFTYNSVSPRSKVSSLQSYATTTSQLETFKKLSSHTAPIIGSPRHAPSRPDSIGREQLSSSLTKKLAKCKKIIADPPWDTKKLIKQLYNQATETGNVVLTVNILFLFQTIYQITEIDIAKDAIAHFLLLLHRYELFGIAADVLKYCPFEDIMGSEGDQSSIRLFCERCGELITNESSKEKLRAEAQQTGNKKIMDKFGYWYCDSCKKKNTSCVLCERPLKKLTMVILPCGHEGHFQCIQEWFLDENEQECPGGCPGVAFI
Described as above. The following applies: partners not purified.

B1: Sea4-TAP (natural protein, UniProt P38164 1-1038, looked up)
chain: MGLIKKVTHWSYDNLIDYLSVNPTRDEVTHYKVDPENESDESIIKLHTVKDFGSITCLDYSESEIGMIGVGEKNGYLRIFNISGQNSSSPASHAPVGLNANNETSMTNASGGKAAQAENIVGSVSNLKDTQGYPVSETNYDIRVRAKKQRCINSLGINTNGLIAMGLDRNKHDSSLQIWDMNYHDDSHETINPMFSYCTNESIVSLKFLNDTSVLAASTKFLKEIDVRSPNPIYQHPTRLTYDIKLNPFNDWQFSTYGDDGTLAIWDRRKLSDQASLGDLNVASPLLTFEKLVGSGAASRKYMNSCFRWSCVRNNEFATLHRGDTIKRWRLGYYCDSNRDIAADDDNEMNIENLFVSSVHDTNTMYDRVATFDYIPRSNNGTSLICMRQSGTIYRMPISEVCSKAILNNRNSLLLSNFENTEIDEIRVNNEHEKSNLENVKTILKNLSFEDLDVSEDYFPSGHDEPNNEIEYSELSEEENEGSNDVLDSKRGFELFWKPEKLLEKDISVIMRTRASLGYGLDPMNTVEMIDSSKNLQNNAYIRNTWRWIAIAKASVDDGTMVSGDLDLGYEGVIGIWNGINGISNQDRYRQETILSDKQLNKEMEKIIKLRRKNRDRNSPIANAAGSPKYVQRRLCLIISGWDLSRSDYEDKYNIIMKNGHYEKAAAWAVFFGDIPKAVEILGSAKKERLRLIATAIAGYLAYKDLPGNNAWRQQCRKMSSELDDPYLRVIFAFIADNDWWDILYEPAISLRERLGVALRFLNDTDLTTFLDRTSSTVIENGELEGLILTGITPNGIDLLQSYVNKTSDVQSAALISIFGSPRYFRDQRVDEWIQTYRDMLKSWELFSMRARFDVLRSKLSRTKTGVLTADIKPRQIYIQCQNCKQNINTPRTSSPSSAVSTSAGNYKNGEAYRRNNADYKKFNTGSSEAQAADEKPRHKYCCPHCGSSFPRCAICLMPLGTSNLPFVINGTQSRDPMQTEDSQDGANRELVSRKLKLNEWFSFCLSCNHGMHAGHAEEWFDRHNVCPTPGCTCQCNK
notes: Sea4, S. cerevisiae, endogenous subunit of the SEAC (SEACAT, core), TAP-tagged; Captured by the TAP tag on IgG beads; the complex was released with TEV protease before SDS-PAGE and cryo-EM; Written 'Sea4-TAP'; Four copies in the SEAC; source: endogenous, yeast cells expressing Sea4-TAP; in lysate, purified on IgG-coupled Dynabeads and eluted with TEV protease
As for B1, the binding result with Sea3 and with Sea2 was “binds” in each case.
